# Experiments:
# [1] = target: T1, PPARγ2 deletion mutant (139-505) (Homo sapiens, UniProt P37231); assay: GST-pull down assay with PPARγ2 deletion mutant (139-505); format: binding; conditions: FIG. 3B/3C
# T1 construct: Flag-PPARγ2 (139-505) DNA (4 μg); expressed in transfected cells; host or cells: HEK-293T
# T1 sequence (P37231 139-505): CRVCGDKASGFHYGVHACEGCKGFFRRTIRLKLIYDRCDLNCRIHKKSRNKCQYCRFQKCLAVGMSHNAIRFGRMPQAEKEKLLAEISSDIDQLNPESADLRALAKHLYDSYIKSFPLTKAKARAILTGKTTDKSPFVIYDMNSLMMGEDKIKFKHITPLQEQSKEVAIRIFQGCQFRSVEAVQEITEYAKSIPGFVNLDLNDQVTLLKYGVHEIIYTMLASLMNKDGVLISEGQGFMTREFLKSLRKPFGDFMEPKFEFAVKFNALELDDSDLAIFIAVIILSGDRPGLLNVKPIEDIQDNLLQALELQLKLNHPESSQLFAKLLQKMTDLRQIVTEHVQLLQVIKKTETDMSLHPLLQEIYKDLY
# Method: HEK-293T cells were seeded in a 100 mm plate at a density of 2×10^6 cells per each well, and then transfected with Flag-PPARγ2 (1-505) DNA (4 μg), Flag-PPARγ2 (1-310) DNA (4 μg), Flag-PPARγ2 (139-505) DNA (4 μg), and mGST-14-3-3β (4 μg) or mGST-14-3-3γ (4 μg) using an E-fection plus reagent (Lugen). For Flag-PPARγ2 (1-310) DNA and Flag-PPARγ2 (139-505) DNA, DNA fragments amplified through polymerase chain reaction (PCR) were cloned into a pCMV-3Tag-1 vector using restriction enzymes XhoI and ApaI. A ratio of DNA to the E-fection plus reagent was 1:2, and this method was performed according to a manufacturer's manual. The corresponding cells were washed with ice-cold PBS and lysed using 500 μl/well of a lysis buffer (150 mM NaCl, 1 mM EDTA, 1% Nonidet P-40, 5% glycerol, 25 mM tris-HCl, pH 7.5, protease inhibitor added), and the lysed cells were centrifuged at 10,000×g and 4° C. for 10 minutes to extract proteins. Thereafter, 1,000 μg of the proteins was reacted with 20 μl of glutathione Sepharose 4B beads (GE Healthcare, Buckinghamshire, UK) for 6 hours, and then washing of the beads with 1 ml of ice-cold PBS was repeated 5 times, and the beads were boiled at 100° C. for 10 minutes, followed by 10% SDS-PAGE gel separation and western blotting. A ratio of GST antibodies (Santa Cruz) to Flag antibodies (Santa Cruz) was 1:3000. […]
# [2] = target: T2, PPAR-RXR complex (Homo sapiens, UniProt P37231); assay: Formation of the PPAR-RXR complex; format: cell-based; conditions: overexpression, FIG. 8C
# T2 sequence (P37231 1-505): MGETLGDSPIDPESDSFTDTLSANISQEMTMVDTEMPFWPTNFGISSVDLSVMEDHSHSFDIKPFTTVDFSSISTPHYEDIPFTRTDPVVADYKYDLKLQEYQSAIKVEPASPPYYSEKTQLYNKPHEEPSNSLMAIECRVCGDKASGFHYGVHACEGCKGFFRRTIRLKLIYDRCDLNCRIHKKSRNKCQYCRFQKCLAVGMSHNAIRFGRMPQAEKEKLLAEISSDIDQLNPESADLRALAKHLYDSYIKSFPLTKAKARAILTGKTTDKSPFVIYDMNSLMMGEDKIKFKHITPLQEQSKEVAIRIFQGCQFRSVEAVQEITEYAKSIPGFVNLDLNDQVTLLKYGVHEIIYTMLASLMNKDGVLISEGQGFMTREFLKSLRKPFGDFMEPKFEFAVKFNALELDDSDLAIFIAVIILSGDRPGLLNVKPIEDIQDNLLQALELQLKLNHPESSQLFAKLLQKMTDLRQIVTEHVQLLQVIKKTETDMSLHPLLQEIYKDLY
# T2 sequence (P19793 1-462 partner): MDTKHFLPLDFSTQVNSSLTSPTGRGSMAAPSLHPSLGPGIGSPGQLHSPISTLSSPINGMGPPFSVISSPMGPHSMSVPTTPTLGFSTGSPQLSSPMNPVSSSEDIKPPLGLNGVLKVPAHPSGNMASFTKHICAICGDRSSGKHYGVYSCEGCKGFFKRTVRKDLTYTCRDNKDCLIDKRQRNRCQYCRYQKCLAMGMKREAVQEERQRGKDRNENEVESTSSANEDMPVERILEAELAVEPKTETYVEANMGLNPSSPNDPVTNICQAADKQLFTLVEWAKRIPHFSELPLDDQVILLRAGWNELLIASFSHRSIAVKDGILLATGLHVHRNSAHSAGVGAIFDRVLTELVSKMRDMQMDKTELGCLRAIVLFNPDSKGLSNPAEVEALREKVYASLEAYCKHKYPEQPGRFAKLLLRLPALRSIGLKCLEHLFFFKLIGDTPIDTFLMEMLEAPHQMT
binding to PPARγ2 deletion mutant (139-505) [1],formation of the PPAR-RXR complex [2],Substance
bound,did not affect,14-3-3β: 14-3-3 isoform protein overexpressed by DNA transfection; increases the transcriptional activity of PPARγ2 by binding to PPARγ2
bound,did not affect,14-3-3γ: 14-3-3 isoform protein overexpressed by DNA transfection; decreases the transcriptional activity of PPARγ2; proposed active ingredient

# Source: patent publication US10688197B2, “Non-alcoholic fatty liver regulator 14-3-3 protein” (Korea University Research and Business Foundation, priority 2015, dated 2020)
